# Measurements from patent US20050288488.
# Assays:
# [1] = target: AhR-ARNT heterodimer (human AhR, human ARNT) (Homo sapiens) (UniProt P35869+P27540); experiment: cell_activity; settings: yeast A303 lacZ reporter, average induction over background with bNF or aNF; ligand EC50 7.9e-8 M for bNF
# [2] = system: LexA(1-202)-AhR N-delta-166 chimera (Escherichia coli? / Mus musculus?); experiment: cell_activity; settings: yeast GRS4 lacZ reporter, average induction over background with bNF or aNF; ligand EC50 6.1e-8 M for bNF
# Sequence of AhR-ARNT heterodimer (human AhR, human ARNT) (Homo sapiens) (P35869 whole entry, chain 1 of 2): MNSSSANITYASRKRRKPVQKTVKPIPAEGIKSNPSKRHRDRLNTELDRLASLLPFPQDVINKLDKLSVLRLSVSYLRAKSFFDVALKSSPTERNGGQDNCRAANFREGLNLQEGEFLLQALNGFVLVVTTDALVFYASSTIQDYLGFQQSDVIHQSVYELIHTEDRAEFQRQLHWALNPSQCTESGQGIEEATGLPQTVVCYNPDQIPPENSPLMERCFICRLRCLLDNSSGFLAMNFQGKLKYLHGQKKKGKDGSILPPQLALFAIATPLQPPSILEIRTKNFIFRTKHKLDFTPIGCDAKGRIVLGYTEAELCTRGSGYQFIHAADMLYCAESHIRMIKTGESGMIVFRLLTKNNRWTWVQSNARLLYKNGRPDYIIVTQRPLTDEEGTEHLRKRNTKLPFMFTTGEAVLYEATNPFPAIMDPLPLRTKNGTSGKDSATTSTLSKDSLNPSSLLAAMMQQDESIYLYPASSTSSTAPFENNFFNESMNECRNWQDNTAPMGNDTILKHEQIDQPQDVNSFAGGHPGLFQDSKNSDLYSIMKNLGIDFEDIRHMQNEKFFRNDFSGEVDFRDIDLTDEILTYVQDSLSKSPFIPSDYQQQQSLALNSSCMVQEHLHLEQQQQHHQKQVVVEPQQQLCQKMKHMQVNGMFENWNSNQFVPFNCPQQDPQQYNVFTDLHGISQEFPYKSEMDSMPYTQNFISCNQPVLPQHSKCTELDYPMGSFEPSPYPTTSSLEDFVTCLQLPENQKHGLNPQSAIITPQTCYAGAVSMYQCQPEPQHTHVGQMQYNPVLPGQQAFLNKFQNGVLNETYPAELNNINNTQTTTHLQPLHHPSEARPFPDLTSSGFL
# Sequence of AhR-ARNT heterodimer (human AhR, human ARNT) (Homo sapiens) (P27540 whole entry, chain 2 of 2): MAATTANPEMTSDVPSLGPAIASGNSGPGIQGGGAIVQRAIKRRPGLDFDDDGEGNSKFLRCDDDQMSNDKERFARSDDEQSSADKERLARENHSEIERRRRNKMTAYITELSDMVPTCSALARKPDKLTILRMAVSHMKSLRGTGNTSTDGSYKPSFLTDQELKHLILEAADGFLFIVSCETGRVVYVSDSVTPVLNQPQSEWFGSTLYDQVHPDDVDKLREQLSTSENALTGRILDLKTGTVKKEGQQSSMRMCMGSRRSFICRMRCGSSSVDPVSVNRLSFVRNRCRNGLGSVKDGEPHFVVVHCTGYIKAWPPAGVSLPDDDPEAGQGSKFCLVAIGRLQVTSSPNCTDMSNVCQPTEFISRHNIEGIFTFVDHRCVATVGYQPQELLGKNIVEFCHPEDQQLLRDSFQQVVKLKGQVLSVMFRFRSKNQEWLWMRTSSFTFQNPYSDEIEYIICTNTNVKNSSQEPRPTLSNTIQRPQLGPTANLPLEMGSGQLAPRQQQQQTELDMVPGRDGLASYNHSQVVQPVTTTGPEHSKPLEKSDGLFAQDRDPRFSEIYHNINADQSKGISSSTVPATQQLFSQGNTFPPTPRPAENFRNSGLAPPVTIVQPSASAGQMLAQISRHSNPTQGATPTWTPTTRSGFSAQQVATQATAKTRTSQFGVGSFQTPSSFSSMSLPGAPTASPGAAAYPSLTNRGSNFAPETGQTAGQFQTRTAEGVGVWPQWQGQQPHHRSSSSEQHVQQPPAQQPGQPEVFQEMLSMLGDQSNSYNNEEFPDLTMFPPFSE
Substance,activity [1],activity [2]
DRE2-DRE3 reporter (pDRE23-Z),12 fold,
eight LexA operator reporter (pSH18-34),,90 fold
